{"source": "paper PMC6238066", "about": "“Versatile Fungal Polyphenol Oxidase with Chlorophenol Bioremediation Potential: Characterization and Protein Engineering” (Applied and Environmental Microbiology, 2018)", "molecules": {"B1": {"name": "TtPPO (Thermothelomyces thermophilus ATCC 42464) (protein)", "chain": "RCSSDAPPPAPVGDDLTEPKELTDLFEKAKKAVIDRLHEDEKALRARGEAPRCTADKLIFRREYGSLSKDERLAYVNAVKCLQSKPPRTPASVAPGARSRFDDFVVVHIQQTLDIHYSGIFQAWHRWFVYQYEKALRDECGYTGYQPYWDWPKYASAPQDSPLFNGDPYSLGGNGEYVPHDGPVIVPPEGVSGGNISLPAGVGGGFVRTGPFANMTVNLGPVGGLADTAPGPQGGLGYNPRGLKRDLGGAMNTRYANYTTVLRLLTQPDVDAFRTVSEGVPYTVEIGPHGGIHYTIGGDPGGDLFTSPGDPAFWVHHAQMDRVWATWQALGLLPPADGGDPDPARRYTDLGKGDYAHRTWQNSPPSPFAELSDVIDMGYAAPSTTIGAVMSTTEGELCYFYL", "notes": "secreted by Pichia pastoris X-33, glycosylated; IMAC"}}, "key": {"Oc1ccc(Cl)cc1O": {"system": "Oc1ccc(Cl)cc1O", "test": "spectrophotometric oxidation assay, nonlinear regression", "format": "biochemical, Thermothelomyces thermophilus", "details": "0.1 M sodium phosphate pH 7, 40°C, 440 nm, 0 to 5 mM substrate", "text": "(§1) spectrophotometric oxidation assay, nonlinear regression on TtPPO"}, "purified protein": {"substrate": "COc1ccccc1O", "test": "purified protein", "details": "0.1 M sodium phosphate pH 7, 40°C, 0 to 15 mM substrate"}, "[1]": {"substrate": "COc1cc(C=O)ccc1O", "test": "spectrophotometric oxidation assay, nonlinear regression", "format": "biochemical, Thermothelomyces thermophilus", "details": "0.1 M sodium phosphate pH 7, 40°C, 0 to 5 mM substrate", "text": "as §1"}, "[2]": {"substrate": "N[C@@H](Cc1ccc(O)c(O)c1)C(=O)O", "test": "spectrophotometric oxidation assay, nonlinear regression", "format": "biochemical, Thermothelomyces thermophilus", "details": "0.1 M sodium phosphate pH 7, 40°C, 475 nm, 0 to 7 mM substrate", "text": "as §1"}, "[3]": {"substrate": "Oc1cc(O)c2c(c1)O[C@H](c1ccc(O)c(O)c1)[C@@H](O)C2", "test": "spectrophotometric oxidation assay, nonlinear regression", "format": "biochemical, Thermothelomyces thermophilus", "details": "0.1 M sodium phosphate pH 7, 40°C, 440 nm, 0 to 10 mM substrate (Km lies above tested range)", "text": "as §1"}, "[4]": {"substrate": "Oc1ccc(O)cc1", "test": "spectrophotometric oxidation assay, nonlinear regression", "format": "biochemical, Thermothelomyces thermophilus", "details": "0.1 M sodium phosphate pH 7, 40°C, 480 nm, 0 to 70 mM substrate", "text": "as §1"}, "[5]": {"substrate": "Oc1ccccc1O", "test": "spectrophotometric oxidation assay, nonlinear regression", "format": "biochemical, Thermothelomyces thermophilus", "details": "0.1 M sodium phosphate pH 7, 40°C, 0 to 60 mM substrate", "text": "as §1"}}}
{"molecule": "TtPPO (Thermothelomyces thermophilus ATCC 42464)", "values": [{"measurement": "Km", "setting": "Oc1ccc(Cl)cc1O", "value": "1.6 (0.1) mM"}, {"measurement": "kcat", "setting": "Oc1ccc(Cl)cc1O", "value": 5.69, "unit": "s⁻¹"}, {"measurement": "kcat/Km", "setting": "Oc1ccc(Cl)cc1O", "value": 3490, "unit": "M⁻¹ s⁻¹"}]}
{"molecule": "B1", "values": [{"measurement": "Km", "setting": "purified protein", "value": "4.2 (0.6) mM"}, {"measurement": "kcat", "setting": "purified protein", "value": 2.91, "unit": "s⁻¹"}, {"measurement": "kcat/Km", "setting": "purified protein", "value": 690, "unit": "M⁻¹ s⁻¹"}, {"measurement": "Km", "setting": "[1]", "value": "2.0 (0.1) mM"}, {"measurement": "kcat", "setting": "[1]", "value": 1.92, "unit": "s⁻¹"}, {"measurement": "kcat/Km", "setting": "[1]", "value": 987, "unit": "M⁻¹ s⁻¹"}, {"measurement": "Km", "setting": "[2]", "value": "2.2 (0.6) mM"}, {"measurement": "kcat", "setting": "[2]", "value": 0.108, "unit": "s⁻¹"}, {"measurement": "kcat/Km", "setting": "[2]", "value": 50, "unit": "M⁻¹ s⁻¹"}, {"measurement": "Km", "setting": "[3]", "value": "31.0 (12.9) mM"}, {"measurement": "kcat", "setting": "[3]", "value": 40.5, "unit": "s⁻¹"}, {"measurement": "kcat/Km", "setting": "[3]", "value": 1300, "unit": "M⁻¹ s⁻¹"}, {"measurement": "Km", "setting": "[4]", "value": "54.4 (5.5) mM"}, {"measurement": "kcat", "setting": "[4]", "value": 1.69, "unit": "s⁻¹"}, {"measurement": "kcat/Km", "setting": "[4]", "value": 31.7, "unit": "M⁻¹ s⁻¹"}, {"measurement": "Km", "setting": "[5]", "value": "27.0 (2.8) mM"}, {"measurement": "kcat", "setting": "[5]", "value": 2.19, "unit": "s⁻¹"}, {"measurement": "kcat/Km", "setting": "[5]", "value": 81.7, "unit": "M⁻¹ s⁻¹"}]}
